# According to the supplement of paper PMC7877785:
# ± gives the uncertainty stated by the source.
# Assay: self-splicing fitness, log relative to wild type (ln ratio); higher = more splicing; Tetrahymena group I intron in knt gene, E. coli kanamycin selection, DiMSum; sequences stand for … in CUCUCU…GGAGGGAAAAGUUAUCAGGCAUGCACCUGGUAGCUAGUCUUUAAACCAAUAGAUUGCAUCGGUUUAAAAGGCAAGACCGUCAAAUUGCGGGAAAGGGGUCAACAGCCGUUCAGUACCAAGUCUCAGGGGAAACUUUGAGAUGGCCUUGCAAAGGGUAUGGUAAUAAGCUGACGGACAUGGUCCUAACCACGCAGCCAAGUCCUAAGUCAACAGAUCUUCUGUUGAUAUGGAUGCAGUUCACAGACUAAAUGUCGGUCGGGGAAGAUGUAUUCUUCUCAUAAGAUAUAGUCGGACCUCUCCUUAAUGGGAGCUAGCGGAUGAAGUGAUGCAACACUGGAGCCGCUGGGAACUAAUUUGUAUGCGAAAGUAUAUUGAUUAGUUUUGGAGUACUCGUGGUCG
# How it was run: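 The eight P1ex-region nucleotides of an intron in the knt kanamycin-resistance gene on pET-22b(+) were all randomised and the library put into E. coli BL21(DE3). Six replicate transformations were grown overnight at 37°C or 30°C on LB agar with or without 25 μg/mL kanamycin, together with 100 μg/mL carbenicillin, 50 μM IPTG and 0.2% rhamnose. Colonies were pooled and amplicon-sequenced on an Illumina HiSeq 2500. Fitness from DiMSum is the error-weighted combination of wild-type-normalised replicate fold changes, kanamycin over none.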
Sequence,self-splicing fitness (ln) (30 °C),self-splicing fitness (ln) (37 °C)
GGCGAGCAAUAUUACGAAUG,-3.21 ± 0.18,-2.84 ± 0.2
GACUAGCAAUAUUACGAGGG,-3.34 ± 0.18,-2.65 ± 0.2
UGAGAGCAAUAUUACGAGGA,-3.49 ± 0.34,-2.83 ± 0.4
CGUGAGCAAUAUUACGACCA,–,-0.768 ± 0.24
CGCUAGCAAUAUUACGUAAG,-0.553 ± 0.073,-0.0723 ± 0.1
CCGGAGCAAUAUUACGUACC,–,-0.504 ± 0.41
CCGCAGCAAUAUUACGAUAC,-2.77 ± 0.28,-2.19 ± 0.46
CUGCAGCAAUAUUACGCAUA,-2.84 ± 0.2,-2.73 ± 0.17
UGUCAGCAAUAUUACGUCGC,-1.14 ± 0.25,–
AUCCAGCAAUAUUACGAUGG,-3.82 ± 0.27,-2.85 ± 0.25
CCGCAGCAAUAUUACGGAAA,-3.75 ± 0.3,-3.29 ± 0.43
GCGUAGCAAUAUUACGCUCG,-3.75 ± 0.32,-1.08 ± 0.2
GUUAAGCAAUAUUACGUAAU,-2.09 ± 0.079,-1.49 ± 0.089
UCUAAGCAAUAUUACGGGCU,-4.19 ± 0.4,-1.84 ± 0.3
AAUAAGCAAUAUUACGGAAA,-1.5 ± 0.33,-2.03 ± 0.39
GCACAGCAAUAUUACGUUUA,-1.19 ± 0.066,-0.603 ± 0.066
UUUCAGCAAUAUUACGCGAA,-2.03 ± 0.14,-1.21 ± 0.14
CCAGAGCAAUAUUACGACUU,-3.55 ± 0.17,-2.61 ± 0.23
UGUUAGCAAUAUUACGAGAC,-3.17 ± 0.37,–
CGAAAGCAAUAUUACGCGUA,-2.68 ± 0.19,-1.95 ± 0.18
GGUUAGCAAUAUUACGUCGG,-2.3 ± 0.36,-1.7 ± 0.35

Sequence,self-splicing fitness (ln) (30 °C),self-splicing fitness (ln) (37 °C)
CAAAAGCAAUAUUACGGGUU,-3.28 ± 0.14,-2.46 ± 0.16
UCACAGCAAUAUUACGCCAA,-3.45 ± 0.44,-2.74 ± 0.38
UGGAAGCAAUAUUACGCUCU,–,-1.45 ± 0.32
UAGGAGCAAUAUUACGGCGU,-3.14 ± 0.24,-1.43 ± 0.28
CUGGAGCAAUAUUACGGAUC,-2.82 ± 0.21,-2.87 ± 0.35
CUACAGCAAUAUUACGUACU,-3.15 ± 0.14,-1.05 ± 0.15
CGCGAGCAAUAUUACGAGAG,-2.69 ± 0.18,-2.92 ± 0.31
UAACAGCAAUAUUACGACUG,-0.343 ± 0.077,0.429 ± 0.099
AGCAAGCAAUAUUACGUAUA,-2.91 ± 0.15,-1.85 ± 0.15
ACAUAGCAAUAUUACGCUGC,-2.01 ± 0.22,-0.747 ± 0.15
GGCGAGCAAUAUUACGUCUC,-1.87 ± 0.23,-1.67 ± 0.38
AAGCAGCAAUAUUACGCCCG,-0.844 ± 0.21,1.38 ± 0.32
UGCUAGCAAUAUUACGUGAC,-3.39 ± 0.35,-2.56 ± 0.41
GGCAAGCAAUAUUACGACGU,-0.0263 ± 0.086,0.872 ± 0.12
AUCGAGCAAUAUUACGAGCG,-2.35 ± 0.33,-1.81 ± 0.27
CUAAAGCAAUAUUACGAGUU,-2.84 ± 0.32,-1.85 ± 0.26
CCUCAGCAAUAUUACGUAAG,-0.219 ± 0.059,0.292 ± 0.082
UUCAAGCAAUAUUACGGGAU,-3.11 ± 0.13,-1.4 ± 0.14
UUCAAGCAAUAUUACGGCCC,-1.49 ± 0.17,-0.618 ± 0.18
UGCUAGCAAUAUUACGAGUG,-1.98 ± 0.12,-1.08 ± 0.11
GCGGAGCAAUAUUACGUUAA,-2.66 ± 0.25,-2.32 ± 0.3

Sequence,self-splicing fitness (ln) (30 °C),self-splicing fitness (ln) (37 °C)
GAACAGCAAUAUUACGUCGU,-1.5 ± 0.065,-0.479 ± 0.078
UGCGAGCAAUAUUACGGACC,-2.33 ± 0.19,–
ACGCAGCAAUAUUACGUUGC,-2.7 ± 0.1,-2.75 ± 0.16
UGAUAGCAAUAUUACGAAAU,-2.83 ± 0.34,-2.19 ± 0.27
AUACAGCAAUAUUACGACAC,-0.517 ± 0.11,-1.31 ± 0.13
CCGGAGCAAUAUUACGUAUC,–,-2.58 ± 0.29
UUACAGCAAUAUUACGAGAC,-3.02 ± 0.27,-2.18 ± 0.34
GCAUAGCAAUAUUACGCCCA,-2.41 ± 0.19,-0.965 ± 0.16
GGGCAGCAAUAUUACGGAGU,-2.8 ± 0.12,-1.78 ± 0.11
GCAUAGCAAUAUUACGAACG,-0.883 ± 0.14,-0.356 ± 0.18
ACGUAGCAAUAUUACGGCAA,-1.49 ± 0.1,-1.15 ± 0.09
AGUAAGCAAUAUUACGUACG,-1.51 ± 0.11,0.135 ± 0.14
GAAUAGCAAUAUUACGCAAC,-2.63 ± 0.21,-1.77 ± 0.3
GAACAGCAAUAUUACGGGCA,-0.822 ± 0.096,-0.223 ± 0.093
GCCCAGCAAUAUUACGUGUU,-0.583 ± 0.042,-0.217 ± 0.054
AAAGAGCAAUAUUACGAGAA,-2.11 ± 0.46,–
GCUAAGCAAUAUUACGGAGG,-1.11 ± 0.14,-1.65 ± 0.29
ACGGAGCAAUAUUACGGAGC,-1.67 ± 0.34,–
GUCCAGCAAUAUUACGCUCG,-0.909 ± 0.15,-1.3 ± 0.22
GUAAAGCAAUAUUACGCUCA,-0.138 ± 0.095,0.776 ± 0.14
CUUGAGCAAUAUUACGGGGG,-2.81 ± 0.2,-3.25 ± 0.39
